Test results from patent publication US10059748B2, “Pharmaceutical compositions for prevention or treatment of neurodegenerative diseases” (INSERM (INSTITUT NATIONAL DE LA SANTÉ ET DE LA RECHERCHE …, priority 2014, dated 2018).

B1: X protein: 87 amino acid X protein of Borna Disease Virus, expressed from a lentiviral vector (LV-X) (protein)
chain: MSSDLRLTLLELVRRLNGNATIESGRLPGGRRRSPDTTTGTVGVTKTTEDPKECIDPTGRPAPEGPQEEPLHDLRPRPANRKGAAIE
modifications: Borna disease virus

Tests used:
primary cortical neurons [1] = assay: Kinetics of neuronal death (pyknotic nuclei, TOPRO-3) after rotenone in microfluidic cultures; assay type: cell-based, rat; conditions: somatic application of rotenone
Experimental: 12 day-old neuronal cultures were subjected to oxidative stress by adding the respiratory chain complex I inhibitors rotenone (1 μM, diluted in DMEM containing 1 g/L glucose (Invitrogen), supplemented with 2 mM glutamine+1% penicillin/streptomycin+2% B-27+1% N2 supplements (Invitrogen)) or MPP+(1-methyl-4-phenylpyridinium, 10 μM in complete neuronal culture medium). The microtubule inhibitor colchicine (10 μM, complete neuronal culture medium) was used as a non-mitochondrial stress control. Toxins were added in the somatic or axonal chambers for respectively, somatic or axonal stress.
Neurons in the microfluidic cultures were fixed for 40 min at room temperature with PBS containing 4% paraformaldehyde (PFA), permeabilized using PBS+0.1% Triton-X100 during 20 min, rinsed with PBS, and blocked for 2 h with PBS+2.5% normal goat serum+3% BSA (blocking buffer). […] Fluorescence-based analyses and measurements were performed on either Zeiss LSM-510 or Zeiss LSM-710 inverted confocal microscopes with a 40× objective (63× objective for the analysis of mitochondrial network morphology and quantification of pDrp1 (S616) immunoreactivity). Immuno fluorescence analyses of Drp1 were performed using anti-pDrp1 (S616) (Cell Signaling Technologies, diluted 1:1000). Quantification of fluorescence intensities was performed using the threshold-based fluorescence quantification module of ImageJ software. […]

[2] = tested on: mitochondrial membrane potential (ΔΨm) of primary neurons; assay: Mitochondrial membrane potential analysis (JC-1); assay type: cell-based, rat; conditions: LV-transduced neurons, no stress
Experimental: Axons were stained with JC-1 dye (2 μM in PBS; LifeTechnologies) as described by the manufacturer. Briefly, JC-1 was added to the culture medium for 45 min at 37° C., 5% CO2, washed twice with PBS and analyzed by confocal microscopy using 488 nm excitation together with 530 nm and 585 nm band pass emission filters, whilst maintaining the cells at 37° C. and 5% CO2. Total fluorescence intensity was measured for each emission band pass with fixed thresholds and ratios between “red” (585 nm: active mitochondria) and “green” (530 nm: total mitochondria network) were determined for each culture (means of 4 randomly chosen pictures for each microfluidic culture).

[3] = tested on: Drp1 (S616) phosphorylation; assay: Immunofluorescence quantification of phospho-Drp1 (S616); assay type: cell-based, rat
Experimental: Neurons in the microfluidic cultures were fixed for 40 min at room temperature with PBS containing 4% paraformaldehyde (PFA), permeabilized using PBS+0.1% Triton-X100 during 20 min, rinsed with PBS, and blocked for 2 h with PBS+2.5% normal goat serum+3% BSA (blocking buffer). Incubation for at least 2 h at room temperature with primary antibodies diluted in blocking buffer was followed, after extensive washes in PBS, by 1 h incubation at room temperature with fluorescently-conjugated secondary antibodies diluted in PBS. For TOPRO3 staining, somatic chambers were incubated with TOPRO3 (1:1000 in PBS; Invitrogen) for 10 min and then rinsed twice in PBS. All incubation and washes were reduced by 50% for neurons grown in standard coverslips. Fluorescence-based analyses and measurements were performed on either Zeiss LSM-510 or Zeiss LSM-710 inverted confocal microscopes with a 40× objective (63× objective for the analysis of mitochondrial network morphology and quantification of pDrp1 (S616) immunoreactivity). Immuno fluorescence analyses of Drp1 were performed using anti-pDrp1 (S616) (Cell Signaling Technologies, diluted 1:1000). Quantification of fluorescence intensities was performed using the threshold-based fluorescence quantification module of ImageJ software. All data were normalized on βIII-tubulin staining.

[4] = tested on: ROS production in primary neurons; assay: ROS production measurement (c-H2DCFDA); assay type: cell-based, rat; conditions: LV-transduced neurons, no stress
Experimental: The culture medium was removed from the axonal or somatic chambers and replaced by pre-warmed PBS containing carboxy-2′,7′-dichlorodihydrofluorescein diacetate (c-H2DCFDA, 5 μM in PBS; LifeTechnologies) for 45 min at 37° C., 5% CO2. After 2 washes in PBS, cultures were returned to warm culture medium for 30 min. Cells were fixed and the integrative fluorescence was measured on 3 randomly selected fields for each axonal chamber. Tert-butyl hydroperoxide (TBHP, LifeTechnologies) was used as a positive control of ROS detection. ROS amounts were detected by fluorescence (excitation/emission: 495/529 nm) and quantified by measuring integrative emission signal intensities for each culture (mean of 4 randomly taken pictures in the case of microfluidic cultures using Zeiss LSM 510 confocal; signal intensity of the whole culture for traditional cultures, using a VarioSkan Flash fluorescence reader (Thermo Electron)).

[5] = tested on: nigrostriatal dopaminergic (DA) neurons; assay: MPTP intoxication mouse model of PD, TH immunodetection in striatum and SNpc; assay type: in vivo; conditions: lentiviral vector, stereotaxic injection in SNpc two weeks before MPTP
Experimental: Peptides covering the N-terminal (PX1, aa 1-30), middle (PX2, aa 29-59) or C-terminal (PX3, aa 59-87) parts of BDV X protein (GenBank: ABW81015.1) coupled to the MPP sequence were synthesized to >95% (in vitro studies) or >99% (in vivo studies) purity (Génosphère). For in vitro experiments, neurons were grown for 12 days before replacing the medium by fresh complete neuronal culture medium containing 5 μM of the peptides. The cultures were maintained 90 min at 37° C., 5% CO2 before any treatment or analysis to ensure peptide penetration into neuronal mitochondria. For intra-cerebroventricular delivery, peptides were injected as described below. For intranasal peptide delivery, 10 μl drops of peptide solution (1 mM solution in saline: H2O+0.9% NaCl) were placed onto the mice nostrils daily from the day before to the 3rd day after MPTP intoxication. […]
For immunohistochemical staining, free-floating brain sections were first quenched for 5 min in 20% (v/v) methanol and 1% (v/v) hydrogen peroxide diluted in PBS, then blocked for 30 min in a 4% solution of BSA diluted in PBS-0.3% Triton-X100 and incubated overnight at 4° C. with a primary antibody directed against tyrosine hydroxylase (1:500 dilution, US biological). […] TH-positive neurons were quantified stereologically on regularly spaced sections covering the whole Substantia Nigra pars compacta (SNpc). […]

primary cortical neurons [6] = assay: Axonal fragmentation in microfluidic primary neuron cultures after toxin treatment; assay type: cell-based, rat; conditions: neurons transduced with lentiviral vectors; rotenone in axonal chamber 16 h
Experimental: Primary cortical neurons were prepared from Sprague-Dawley rat embryos at gestational day 17. After dissection, cortex tissue was dissociated by a 15 min incubation at 37° C. in PBS containing 10 U/ml Papain (Worthington), followed by a gentle dissociation in PBS containing 1.5 mg/ml bovine serum albumin (BSA) and 1.5 mg/ml Trypsin inhibitor (from chicken egg, Sigma-Aldrich). After centrifugation through a 4% BSA cushion, neurons were plated on culture dishes coated with 0.5 mg/ml Poly-DL-Ornithine (PO, overnight, Sigma-Aldrich) and 5 mg/ml Laminin (2 h, Roche). Neuronal cultures were maintained in complete neuronal culture medium composed of serum-free Neurobasal (Gibco) supplemented with 2 mM L-Glutamine, 100 μg/ml penicillin/streptomycin (Gibco) and 2% B-27 supplement (Gibco). […]
The analysis of axonal degeneration was performed both by phase contrast observation and after immunostaining of axonal βIII-tubulin (Sigma-Aldrich). […] For each microfluidic culture, the total βIII-tubulin staining area was measured on 4 randomly selected pictures taken in the axonal chamber (MetaMorph software analysis, fixed thresholds). Then, the number of tubulin spots of fragmented axons was manually counted (Imaris software, Spot counting for “clicking” records) and the ratio between the number of spots and the total staining area was defined as a fragmentation index. […]

[7] = tested on: mitochondrial network of primary neurons; assay: Analysis of mitochondrial network morphology (Tom20 staining); assay type: cell-based, rat
Experimental: Primary cortical neurons were prepared from Sprague-Dawley rat embryos at gestational day 17. After dissection, cortex tissue was dissociated by a 15 min incubation at 37° C. in PBS containing 10 U/ml Papain (Worthington), followed by a gentle dissociation in PBS containing 1.5 mg/ml bovine serum albumin (BSA) and 1.5 mg/ml Trypsin inhibitor (from chicken egg, Sigma-Aldrich). After centrifugation through a 4% BSA cushion, neurons were plated on culture dishes coated with 0.5 mg/ml Poly-DL-Ornithine (PO, overnight, Sigma-Aldrich) and 5 mg/ml Laminin (2 h, Roche). Neuronal cultures were maintained in complete neuronal culture medium composed of serum-free Neurobasal (Gibco) supplemented with 2 mM L-Glutamine, 100 μg/ml penicillin/streptomycin (Gibco) and 2% B-27 supplement (Gibco).
Neurons were grown for 9 days at low density on 12 mm diameter glass coverslips placed in 24-well plates (5×10^4 cells per well). Transduction with lentiviral vectors was performed on day 3, whereas peptide was added to the medium on day 9. Neurons were left untreated or subjected to rotenone treatment (5 to 100 nM for 2 h, diluted in PBS), rinsed, fixed and directly stained for neuronal marker (βIII-tubulin) and mitochondria (Tom20, Santa Cruz Biotech.). Confocal pictures were taken and blinded to the investigator before image analysis. The sizes of mitochondria in all neuronal extensions of randomly selected neurons were determined using ImageJ software and mitochondria were classified in size categories (ranging from <2 μm to >8 μm). Each category was expressed as percentages relative to the size of the total mitochondrial network for a given neuron.

OPA1, Mfn1/2, Fis1, Drp1 = assay: Expression and recruitment of mitochondrial fission/fusion actors; assay type: cell-based; conditions: X-expressing cells
[8] = tested on: oxygen consumption rates of primary neurons; assay: Mitochondrial respiration measurements (Seahorse XF24 OCR); assay type: cell-based, rat; conditions: LV-transduced neurons, no stress
Experimental: Real-time measurements of oxygen consumption rates (OCR) were performed using a Seahorse XF24 extracellular flux analyzer (Seahorse Bioscience). Neurons were seeded and grown for 9 days in Seahorse XF24-wells plates (3×10^4 cells/well). Transduction with lentiviral vectors was performed on the 3rd day after seeding. Before measurements, the culture medium was replaced by warm respiration medium: DMEM without phenol red supplemented with 10 mM glucose, 2 mM L-Glutamine and 2 mM Pyruvate (Gibco) (the pH of the final culture medium was adjusted to 7.4). Following three 2-minute baseline measurements of OCR (3 minute-rest between each measure), mitochondrial complex inhibitors were sequentially injected into each well. Three OCR readings were taken after addition of each inhibitor and before automated injection of the subsequent inhibitor. Mitochondrial complex inhibitors, in order of injection, were Oligomycin (2 μM) to inhibit complex V (i.e., ATP synthase), FCCP (20 μM) to uncouple the proton gradient, Rotenone (2.0 μM), to inhibit complex I and Antimycin (2.0 μM), to inhibit complex III. OCR values were automatically calculated, recorded, and plotted by the Seahorse XF24 software.

Molecule	time to cell death (primary cortical neurons [1]) [h]	impact on ΔΨm at steady-state [2]	enhanced Drp1 phosphorylation after treatment with rotenone ([3]; after rotenone)	phosphorylation of Drp1 on serine-616 ([3]; steady state)	impact on ROS production at steady-state [4]	ipsilateral TH-positive neurons in the SNpc after MPTP [5]	ipsilateral striatal fibers (TH) after MPTP [5]	protection against rotenone-induced axonal fragmentation (primary cortical neurons [6])	rotenone-induced mitochondrial fission ([7]; after rotenone)	weighted mean size of mitochondria ([7]; after rotenone-induced oxidative stress (10 nM rotenone 2 h)) [μm]	decrease of short, fragmented mitochondria (<2 μm) ([7]; steady state) [%]	weighted mean size of mitochondria ([7]; steady state, without rotenone) [μm]	expression levels of OPA1, Mfn1/2, Fis1, Drp1 vs control cells (OPA1, Mfn1/2, Fis1, Drp1)	recruitment of Drp1 to the mitochondria vs control cells (OPA1, Mfn1/2, Fis1, Drp1)	impact on respiration at steady-state [8]
C=C(C)[C@H]1Cc2c(ccc3c2O[C@@H]2COc4cc(OC)c(OC)cc4[C@@H]2C3=O)O1 [rotenone]	< 4														
B1		no impact	selectively reduced	severely reduced	no impact	almost complete protection	preservation	same level of axonal protection as infection with BDV	significantly reduced	4.54	60	5.22	did not find any significant difference	no difference	no impact
